According to the supplement of paper PMC10567573:

B1: CDC25A (parent)
chain: QLIDPDENKENEAFEFKKPVRPVS

Variants of: B1
Test: protein stability index of a GFP-peptide fusion (GPS, HEK-293T) (PSI 1-6); higher = more stable
Conditions: c terminus: a fixed tail appended
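Also: lentivirally expressed fusions sorted by FACS into six bins by GFP to DsRed ratio, PSI derived from sequencing read proportions per bin multiplied by bin number.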

Row | Variant | protein stability index
1 | QLIDPDENKENEAFVFKKPVRPVS [E15V] | 3.36
2 | QLIDPDENKENEAFSFKKPVRPVS [E15S] | 4
3 | QLIDPDENKENEAFQFKKPVRPVS [E15Q] | 4.08
4 | QLIDPDENKENEAFRFKKPVRPVS [E15R] | 2.37
5 | QLIDPDENKENEAFDFKKPVRPVS [E15D] | 3.77
6 | QLIDPDENKENEAFTFKKPVRPVS [E15T] | 3.92
7 | QLIDPDENKENEAFPFKKPVRPVS [E15P] | 4.16
8 | QLIDPDENKENEAFFFKKPVRPVS [E15F] | 3.41
9 | QLIDPDENKENEAFIFKKPVRPVS [E15I] | 3.7
10 | QLIDPDENKENEAFHFKKPVRPVS [E15H] | 3.57
11 | QLIDPDENKENEAFYFKKPVRPVS [E15Y] | 3.02
12 | QLIDPDENKENEAFNFKKPVRPVS [E15N] | 3.13
13 | QLIDPDENKENEAFGFKKPVRPVS [E15G] | 2.89
14 | QLIDPDENKENEAFWFKKPVRPVS [E15W] | 3.54
15 | QLIDPDENKENEAFLFKKPVRPVS [E15L] | 3.36
16 | QLIDPDENKENEAFAFKKPVRPVS [E15A] | 4.01
17 | QLIDPDENKENEAFMFKKPVRPVS [E15M] | 4.37
18 | QLIDPDENKENEAFKFKKPVRPVS [E15K] | 4.3
19 | QLIDPDENKEKEAFEFKKPVRPVS [N11K] | 4.56
20 | QLIDPDENKESEAFEFKKPVRPVS [N11S] | 4.22
21 | QLIDPDENKEIEAFEFKKPVRPVS [N11I] | 4.53
22 | QLIDPDENKETEAFEFKKPVRPVS [N11T] | 4.99
23 | QLIDPDENKELEAFEFKKPVRPVS [N11L] | 4.65
24 | QLIDPDENKEPEAFEFKKPVRPVS [N11P] | 4.49

Row | Variant | protein stability index
25 | QLIDPDENKEVEAFEFKKPVRPVS [N11V] | 4.63
26 | QLIDPDENKEEEAFEFKKPVRPVS [N11E] | 4.22
27 | QLIDPDENKEQEAFEFKKPVRPVS [N11Q] | 4.32
28 | QLIDPDENKEDEAFEFKKPVRPVS [N11D] | 4.68
29 | QLIDPDENKEWEAFEFKKPVRPVS [N11W] | 4.02
30 | QLIDPDENKEAEAFEFKKPVRPVS [N11A] | 3.81
31 | QLIDPDENKEFEAFEFKKPVRPVS [N11F] | 4.02
32 | QLIDPDENKEYEAFEFKKPVRPVS [N11Y] | 4.29
33 | QLIDPDENKEMEAFEFKKPVRPVS [N11M] | 4.25
34 | QLIDPDENKECEAFEFKKPVRPVS [N11C] | 4.23
35 | QLIDPDENKENEAFEFKFPVRPVS [K18F] | 4.33
36 | QLIDPDENKENEAFEFKDPVRPVS [K18D] | 4.47
37 | QLIDPDENKENEAFEFKEPVRPVS [K18E] | 5.52
38 | QLIDPDENKENEAFEFKGPVRPVS [K18G] | 4.04
39 | QLIDPDENKENEAFEFKAPVRPVS [K18A] | 3.7
40 | QLIDPDENKENEAFEFKCPVRPVS [K18C] | 4.1
41 | QLIDPDENKENEAHEFKKPVRPVS [F14H] | 4.42
42 | QLIDPDENKENEAYEFKKPVRPVS [F14Y] | 4.12
43 | QLIDPDENKENEAKEFKKPVRPVS [F14K] | 5
44 | QLIDPDENKENEAGEFKKPVRPVS [F14G] | 4.53
45 | QLIDPDENKENEAREFKKPVRPVS [F14R] | 3.79
46 | QLIDPDENKENEAPEFKKPVRPVS [F14P] | 4.92
47 | QLIDPDENKENEAAEFKKPVRPVS [F14A] | 4.68
48 | QLIDPDENKENEALEFKKPVRPVS [F14L] | 4.21

Row | Variant | protein stability index
49 | QLIDPDENKENEANEFKKPVRPVS [F14N] | 3.98
50 | QLIDPDENKENEAWEFKKPVRPVS [F14W] | 3.2
51 | QLIDPDENKENEAIEFKKPVRPVS [F14I] | 4.04
52 | QLIDPDENKENEAVEFKKPVRPVS [F14V] | 4.55
53 | QLIDPDENKENEATEFKKPVRPVS [F14T] | 3.73
54 | QLIDPDENKENEAMEFKKPVRPVS [F14M] | 3.8
55 | QLIDPDENKENEACEFKKPVRPVS [F14C] | 4.55
56 | QLIDPDENKENEASEFKKPVRPVS [F14S] | 4.5
57 | QLIDPDENKENEAQEFKKPVRPVS [F14Q] | 3.94
58 | QLIDPDENKENEADEFKKPVRPVS [F14D] | 5.04
59 | QLIDPDENKENEAEEFKKPVRPVS [F14E] | 4.78
60 | QLIDPDENRENEAFEFKKPVRPVS [K9R] | 4.21
61 | QLIDPDENIENEAFEFKKPVRPVS [K9I] | 3.89
62 | QLIDPDENVENEAFEFKKPVRPVS [K9V] | 4.83
63 | QLIDPDENFENEAFEFKKPVRPVS [K9F] | 4.04
64 | QLIDPDENEENEAFEFKKPVRPVS [K9E] | 4.62
65 | QLIDPDENSENEAFEFKKPVRPVS [K9S] | 4.39
66 | QLIDPDENPENEAFEFKKPVRPVS [K9P] | 4.62
67 | QLIDPDENHENEAFEFKKPVRPVS [K9H] | 4.18
68 | QLIDPDENLENEAFEFKKPVRPVS [K9L] | 3.51
69 | QLIDPDENCENEAFEFKKPVRPVS [K9C] | 4.54
70 | QLIDPDENMENEAFEFKKPVRPVS [K9M] | 4.09
71 | QLIDPDENYENEAFEFKKPVRPVS [K9Y] | 5.01
72 | QLIDPDENWENEAFEFKKPVRPVS [K9W] | 3.82

Row | Variant | protein stability index
73 | QLIDPDENTENEAFEFKKPVRPVS [K9T] | 4
74 | QLIDPDENDENEAFEFKKPVRPVS [K9D] | 4.97
75 | QLIDPDENGENEAFEFKKPVRPVS [K9G] | 4.2
76 | QLIDPDENQENEAFEFKKPVRPVS [K9Q] | 4.74
77 | QLIDPDENNENEAFEFKKPVRPVS [K9N] | 4.65
78 | QLIDPDENAENEAFEFKKPVRPVS [K9A] | 4.37
79 | QLIDPDENKENHAFEFKKPVRPVS [E12H] | 3.21
80 | QLIDPDENKENMAFEFKKPVRPVS [E12M] | 2.78
81 | QLIDPDENKENYAFEFKKPVRPVS [E12Y] | 3.38
82 | QLIDPDENKENLAFEFKKPVRPVS [E12L] | 3.56
83 | QLIDPDENKENQAFEFKKPVRPVS [E12Q] | 3.85
84 | QLIDPDENKENVAFEFKKPVRPVS [E12V] | 3.36
85 | QLIDPDENKENCAFEFKKPVRPVS [E12C] | 3.55
86 | QLIDPDENKENIAFEFKKPVRPVS [E12I] | 3.34
87 | QLIDPDENKENFAFEFKKPVRPVS [E12F] | 2.87
88 | QLIDPDENKENRAFEFKKPVRPVS [E12R] | 3.1
89 | QLIDPDENKENWAFEFKKPVRPVS [E12W] | 3.19
90 | QLIDPDENKENPAFEFKKPVRPVS [E12P] | 4.17
91 | QLIDPDENKENSAFEFKKPVRPVS [E12S] | 4.16
92 | QLIDPDENKENKAFEFKKPVRPVS [E12K] | 3.84
93 | QLIDPDENKENAAFEFKKPVRPVS [E12A] | 3.34
94 | QLIDPDENKENGAFEFKKPVRPVS [E12G] | 4.61
